In patent publication US6379943, “High-efficiency Cre/loxp based system for construction of adenovirus vectors” (Merck & Co., Inc.):

What was measured:
[1] = target: Cre recombinase (Bacteriophage P1?) (UniProt P06956); assay: cell_activity; settings: plasmids lacking lox; 5 plaques in 293 without Cre, homologous recombination background
Cre recombinase = Cre recombinase (UniProt P06956 P06956:1-343); assay: cell_activity; pCA36lox x pBHG10lox cotransfection; 168 plaques in 293Cre4 vs 4 in 293 (12 dishes each); settings: tags: stably expressed in 293Cre4 cells; chain copies: 4; BamHI/BglII overhangs
Sequence of Cre recombinase (P06956 whole entry, one chain of several): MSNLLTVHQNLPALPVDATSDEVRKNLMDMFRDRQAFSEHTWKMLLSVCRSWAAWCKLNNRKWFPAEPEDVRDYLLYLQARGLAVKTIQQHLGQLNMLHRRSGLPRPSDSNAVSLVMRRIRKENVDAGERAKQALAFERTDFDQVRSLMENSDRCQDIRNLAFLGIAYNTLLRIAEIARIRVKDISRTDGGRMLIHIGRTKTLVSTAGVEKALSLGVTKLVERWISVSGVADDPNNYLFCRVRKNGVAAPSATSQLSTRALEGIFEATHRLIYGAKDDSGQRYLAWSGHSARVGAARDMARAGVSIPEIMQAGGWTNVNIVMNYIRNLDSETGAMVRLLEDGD
From the text: The efficiency of Cre/lox mediated recombination was compared with that of homologous recombination, by measuring the numbers of virus plaques obtained from cotransfections of 293 cells versus the numbers obtained following cotransfections of 293Cre4 cells (see, for example, U.S. patent application Ser. No. 08/473,168, filed Jun. 7, 1995; see also WO96/40955, hereby incorporated by reference).
Coupled with the fact that the only infectious virus present in the transfected cell preparation are recombinants, rather than contaminating starting virus, the efficiency, cleanliness and convenience of this method in comparison to known methods represent significant advances in the art. Thus, with this new method it will be possible to reduce the amount of plasmid DNA used in cotransfections and reduce the number of dishes of 293 (293Cre) cells needed in cotransfections for rescue of viral vectors. It will also aid in the rescue of constructs which, for unknown reasons, might be otherwise difficult to rescue (e.g. rescue of vectors containing large foreign DNA inserts in E1 is often inefficient for reasons that are not known).

Sequence of Cre recombinase (Bacteriophage P1?) (P06956 whole entry): as the sequence (P06956 whole entry, one chain of several) above

Molecule	activity (plaques (12 dishes)) [1]	activity (Cre recombinase)
no-lox plasmid pair pCA36:pBHG10	7	–
loxP linker AB3233/AB3234 (dsDNA) DNA 1: GATCCAATAACTTCGTATAGCATACATTATACGAAGTTATAAGTACTGAATTCG DNA 2: GATCCGAATTCAGTACTTATAACTTCGTATAATGTATGCTATACGAAGTTATTG	–	35 fold over homologous recombination
